{"source": "patent US20170009224A1", "target": "lambda repressor cI comprising a TEV protease cleavage site (ENLYFQ(G/S)) within the interdomain linker (UniProt P03034)", "assay": "cell-based or functional assay"}
{"substance": "TEV protease (wild type) (from UniProt P04517 2038-2279) (enzyme)", "values": [{"measurement": "gene expression from the pR promoter driving pIII and luciferase", "result": "> 100", "unit": "fold"}]}
